Where two headings read alike, the source gives them in different places.
What was measured:
Assay in all cases: competition EMSA
LexA (DinR) wild type [1] = target: T1, LexA (DinR) wild type (Bacillus subtilis, UniProt P31080 1-205)
T1 sequence: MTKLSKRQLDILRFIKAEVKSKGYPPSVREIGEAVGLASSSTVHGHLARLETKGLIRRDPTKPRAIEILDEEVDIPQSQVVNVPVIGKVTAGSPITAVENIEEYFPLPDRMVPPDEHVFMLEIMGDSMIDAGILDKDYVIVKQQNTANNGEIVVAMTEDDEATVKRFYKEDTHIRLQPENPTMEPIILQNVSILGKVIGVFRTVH

LexA (DinR) wild type [2] = target: T1, LexA (DinR) wild type; remark: listed apart in the source
LexA (DinR) wild type [3] = target: T1, LexA (DinR) wild type; remark: listed apart in the source
LexA (DinR) wild type [4] = target: T1, LexA (DinR) wild type; remark: listed apart in the source
LexA (DinR) wild type [5] = target: T1, LexA (DinR) wild type; remark: listed apart in the source
LexA (DinR) wild type [6] = target: T1, LexA (DinR) wild type; remark: listed apart in the source
LexA (DinR) wild type [7] = target: T1, LexA (DinR) wild type; remark: listed apart in the source
LexA (DinR) wild type [8] = target: T1, LexA (DinR) wild type; remark: listed apart in the source
LexA (DinR) wild type [9] = target: T1, LexA (DinR) wild type; remark: listed apart in the source
LexA (DinR) wild type [10] = target: T1, LexA (DinR) wild type; remark: listed apart in the source
LexA (DinR) wild type [11] = target: T1, LexA (DinR) wild type; remark: listed apart in the source
LexA (DinR) wild type [12] = target: T1, LexA (DinR) wild type; remark: listed apart in the source
LexA (DinR) wild type [13] = target: T1, LexA (DinR) wild type; remark: listed apart in the source
LexA (DinR) wild type [14] = target: T1, LexA (DinR) wild type; remark: listed apart in the source
LexA (DinR) wild type [15] = target: T1, LexA (DinR) wild type; remark: listed apart in the source

B1: recA op T7C (dsDNA)
DNA 1: GGGGGGCGAATACGCGTTCGCCCCCC
DNA 2: GGGGGGCGAACGCGTATTCGCCCCCC
B1 showed a Ki (LexA (DinR) wild type [1]) of 7.8 nM.

B2: recA op T5C,G8A,C9T (preferred) (dsDNA)
DNA 1: GGGGGGCGAACATATGTTCGCCCCCC
DNA 2: GGGGGGCGAACATATGTTCGCCCCCC
Binder B2 has a Ki (LexA (DinR) wild type [2]) of 0.17 nM.

B3: recA op C1A,T5C (dsDNA)
DNA 1: GGGGGGAGAACATGCGTTCGCCCCCC
DNA 2: GGGGGGCGAACGCATGTTCTCCCCCC
Binder B3 has a Ki (LexA (DinR) wild type [3]) of 0.42 nM.

B4: recA op C1A (dsDNA)
DNA 1: GGGGGGAGAATATGCGTTCGCCCCCC
DNA 2: GGGGGGCGAACGCATATTCTCCCCCC
B4 gave a Ki (LexA (DinR) wild type [4]) of 11.4 nM.

B5: recA op T5C (dsDNA)
DNA 1: GGGGGGCGAACATGCGTTCGCCCCCC
DNA 2: GGGGGGCGAACGCATGTTCGCCCCCC
In the case of B5, the Ki (LexA (DinR) wild type [5]) is reported as 0.22 nM.

B6: recA op T5C,A6C (dsDNA)
DNA 1: GGGGGGCGAACCTGCGTTCGCCCCCC
DNA 2: GGGGGGCGAACGCAGGTTCGCCCCCC
Work on B6 yielded a Ki (LexA (DinR) wild type [6]) of 0.56 nM.

B7: recA op A6G (dsDNA)
DNA 1: GGGGGGCGAATGTGCGTTCGCCCCCC
DNA 2: GGGGGGCGAACGCACATTCGCCCCCC
B7 showed a Ki (LexA (DinR) wild type [7]) of 6.4 nM.

B8: recA op C1G (dsDNA)
DNA 1: GGGGGGGGAATATGCGTTCGCCCCCC
DNA 2: GGGGGGCGAACGCATATTCCCCCCCC
Work on B8 yielded a Ki (LexA (DinR) wild type [8]) of 53 nM.

B9: recA op T5C,T7A (dsDNA)
DNA 1: GGGGGGCGAACAAGCGTTCGCCCCCC
DNA 2: GGGGGGCGAACGCTTGTTCGCCCCCC
Binder B9 has a Ki (LexA (DinR) wild type [9]) of 0.62 nM.

B10: recA op C1G,T5C (dsDNA)
DNA 1: GGGGGGGGAACATGCGTTCGCCCCCC
DNA 2: GGGGGGCGAACGCATGTTCCCCCCCC
For B10, the Ki (LexA (DinR) wild type [10]) was 1 nM.

B11: recA op T5C,A6T (dsDNA)
DNA 1: GGGGGGCGAACTTGCGTTCGCCCCCC
DNA 2: GGGGGGCGAACGCAAGTTCGCCCCCC
B11 gave a Ki (LexA (DinR) wild type [11]) of 0.49 nM.

B12: recA op G2A,T5C (dsDNA)
DNA 1: GGGGGGCAAACATGCGTTCGCCCCCC
DNA 2: GGGGGGCGAACGCATGTTTGCCCCCC
In the case of B12, the Ki (LexA (DinR) wild type [12]) is reported as 5.2 nM.

B13: recA op A6T (dsDNA)
DNA 1: GGGGGGCGAATTTGCGTTCGCCCCCC
DNA 2: GGGGGGCGAACGCAAATTCGCCCCCC
B13 was tested, and the Ki (LexA (DinR) wild type [13]) was 11.5 nM.

B14: recA op T7A (dsDNA)
DNA 1: GGGGGGCGAATAAGCGTTCGCCCCCC
DNA 2: GGGGGGCGAACGCTTATTCGCCCCCC
B14 gave a Ki (LexA (DinR) wild type [14]) of 17.1 nM.

B15: recA op A6C (dsDNA)
DNA 1: GGGGGGCGAATCTGCGTTCGCCCCCC
DNA 2: GGGGGGCGAACGCAGATTCGCCCCCC
B15 gave a Ki (LexA (DinR) wild type [15]) of 20 nM.

Source: paper PMC1277809
